Measurements: PMC10182836

Target: H3-tailless nucleosomes (nucleosomes with the first 33 residues of H3 removed) (human) (UniProt P04908)

fold reduction of S1/2 on H3-tailless nucleosomes [fold]	Substance
3.1	Pho4ΔN (AA 250–312) (from UniProt P07270 250-312) (domain or fragment)
1.3	Cbf1ΔN (residues 209–351) (from UniProt P17106 209-351) (domain or fragment)
